Earlier results on one substance are cited in PMC8291337.

The target of this data set is Spike protein (SARS-CoV-2) (UniProt P0DTC2).

Take CD147 (from UniProt P35613): the Kd – broadly, the free concentration of one partner at which half of the binding sites on the other are occupied at equilibrium, for simple one-to-one binding – is 185 nM.
